How the values were obtained:
His-tagged human TIGIT [1] = target: T1, His-tagged human TIGIT (human, UniProt Q495A1 22-141); assay: SPR experiment 1, IgG from HEK293 supernatant captured
T1 construct: SPR analyte; also called human TIGIT protein; not shown: His tag
T1 sequence: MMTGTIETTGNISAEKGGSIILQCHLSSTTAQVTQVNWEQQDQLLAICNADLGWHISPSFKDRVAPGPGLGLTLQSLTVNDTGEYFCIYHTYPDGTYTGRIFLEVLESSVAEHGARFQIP

His-tagged human TIGIT [2] = target: T1, His-tagged human TIGIT; assay: SPR experiment 2, IgG from HEK293 supernatant captured

B1: reshaped TIGIT-3 antibody 3VH3 + 3VL (antibody, V domains shown)
VH: EVQLVESGGGLVQPGGSLRLSCAASGFTFSSYGMSWVRQAPGKGLELVATIKSDGGSTNLPDSVKGRFTISRDNSKNTLYLQMNSLRAEDTAVYYCVRGYFDYWGQGTTVTVSS
VL: DIVMTQSHKFMSTSVGDRVSITCKASQDVKTAVAWYQQKPGQSPKLLIYWSSTRHTGVPDRFTGSRSLTDHTLTISSVQAEDLALYYCQQYYSTPYTFGGGTKLELK
notes: Full-length IgG, tested as HEK293 supernatant
Kd (His-tagged human TIGIT [1]): 0.25 nM
koff (His-tagged human TIGIT [1]): 0.00015 s⁻¹
kon (His-tagged human TIGIT [1]): 580000 M⁻¹ s⁻¹
Kd (His-tagged human TIGIT [2]): 0.48 nM
koff (His-tagged human TIGIT [2]): 0.00025 s⁻¹
kon (His-tagged human TIGIT [2]): 520000 M⁻¹ s⁻¹
